target: Paramecium tetraurelia MTA9 (PteMTA9), untagged; assay: GST pull-down; conditions: parent: 100

Molecule	percent of parent [%]
GST-MTA1 (residues 171-372) L295A	7
GST-MTA1 (residues 171-372) Y294A	12
GST-MTA1 (residues 171-372) Q296A	95
GST-MTA1 (residues 171-372) H297A	97

Target: T1, GST-MTA1 (residues 171-372)
T1 chain: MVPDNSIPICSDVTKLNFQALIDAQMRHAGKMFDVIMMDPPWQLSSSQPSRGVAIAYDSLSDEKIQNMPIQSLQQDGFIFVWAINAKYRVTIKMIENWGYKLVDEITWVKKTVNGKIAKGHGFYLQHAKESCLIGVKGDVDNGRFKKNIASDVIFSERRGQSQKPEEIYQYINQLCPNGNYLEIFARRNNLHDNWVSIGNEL
Assay: GST pull-down
Conditions: chain shown with the change;; parent: 100

Molecule	percent of parent [%]
Paramecium tetraurelia MTA9 (PteMTA9), untagged V219A (protein) MGKNQRESLRMRLRYNEPGSENKRINYFKLNQGYDITEDDSEYMDEQDSYKAFKKIRKYKTKSKEDKVTCDNLEVLLQWKGSINCQSYETDQKKIVVLKKILGTDLSQYAKGVQGIFIDNLFKKDLKNLDISKKLISNGILFIWSDKSLINEILETMENKGFTYIENLVVVQLSLEQALEELNKHMKIEQTEDAVLDNLDFLQQKVQVKDLILHRPSKALNQSKQVLIMFRKFDEQKSQLELRHQRTPDVLFDIVNNGKSCLKTKEYIYQTIETLLPKSQLMEIFAQKDQPRKGWISVCENK	45
Paramecium tetraurelia MTA9 (PteMTA9), untagged L220A (protein) MGKNQRESLRMRLRYNEPGSENKRINYFKLNQGYDITEDDSEYMDEQDSYKAFKKIRKYKTKSKEDKVTCDNLEVLLQWKGSINCQSYETDQKKIVVLKKILGTDLSQYAKGVQGIFIDNLFKKDLKNLDISKKLISNGILFIWSDKSLINEILETMENKGFTYIENLVVVQLSLEQALEELNKHMKIEQTEDAVLDNLDFLQQKVQVKDLILHRPSKVANQSKQVLIMFRKFDEQKSQLELRHQRTPDVLFDIVNNGKSCLKTKEYIYQTIETLLPKSQLMEIFAQKDQPRKGWISVCENK	73
Paramecium tetraurelia MTA9 (PteMTA9), untagged Y164A (protein) MGKNQRESLRMRLRYNEPGSENKRINYFKLNQGYDITEDDSEYMDEQDSYKAFKKIRKYKTKSKEDKVTCDNLEVLLQWKGSINCQSYETDQKKIVVLKKILGTDLSQYAKGVQGIFIDNLFKKDLKNLDISKKLISNGILFIWSDKSLINEILETMENKGFTAIENLVVVQLSLEQALEELNKHMKIEQTEDAVLDNLDFLQQKVQVKDLILHRPSKVLNQSKQVLIMFRKFDEQKSQLELRHQRTPDVLFDIVNNGKSCLKTKEYIYQTIETLLPKSQLMEIFAQKDQPRKGWISVCENK	0

Target: T2, Tetrahymena thermophila MTA1 (TthMTA1), untagged
T2 chain: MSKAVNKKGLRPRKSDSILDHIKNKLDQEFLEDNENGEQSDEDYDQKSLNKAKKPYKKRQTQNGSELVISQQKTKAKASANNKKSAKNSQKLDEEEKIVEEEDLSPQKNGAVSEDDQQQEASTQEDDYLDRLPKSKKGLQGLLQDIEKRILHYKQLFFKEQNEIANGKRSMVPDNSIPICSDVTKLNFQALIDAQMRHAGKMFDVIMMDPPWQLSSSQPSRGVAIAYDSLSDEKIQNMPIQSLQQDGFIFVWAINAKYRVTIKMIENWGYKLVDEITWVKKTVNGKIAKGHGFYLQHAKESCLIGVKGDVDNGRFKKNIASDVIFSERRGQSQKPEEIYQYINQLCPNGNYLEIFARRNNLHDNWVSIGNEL
Assay: GST pull-down
Conditions: chain shown with the change;; parent: 100

Molecule	percent of parent [%]
His6GST-Tthp1 L173A (protein) MSLKKGKFQHNQSKSLWNYTLSPGWREEEVKILKSALQLFGIGKWKKIMESGCLPGKSIGQIYMQTQRLLGQQSLGDFMGLQIDLEAVFNQNMKKQDVLRKNNCIINTGDNPTKEERKRRIEQNRKIYGLSAKQIAEIKLPKVKKHAPQYMTLEDIENEKFTNLEILTHLYNAKAEIVRRLAEQGETIAQPSIIKSLNNLNHNLEQNQNSNSSTETKVTLEQSGKKKYKVLAIEETELQNGPIATNSQKKSINGKRKNNRKINSDSEGNEEDISLEDIDSQESEINSEEIVEDDEEDEQIEEPSKIKKRKKNPEQESEEDDIEEDQEEDELVVNEEEIFEDDDDDEDNQDSSEDDDDDED	78
His6GST-Tthp1 L167A (protein) MSLKKGKFQHNQSKSLWNYTLSPGWREEEVKILKSALQLFGIGKWKKIMESGCLPGKSIGQIYMQTQRLLGQQSLGDFMGLQIDLEAVFNQNMKKQDVLRKNNCIINTGDNPTKEERKRRIEQNRKIYGLSAKQIAEIKLPKVKKHAPQYMTLEDIENEKFTNLEIATHLYNLKAEIVRRLAEQGETIAQPSIIKSLNNLNHNLEQNQNSNSSTETKVTLEQSGKKKYKVLAIEETELQNGPIATNSQKKSINGKRKNNRKINSDSEGNEEDISLEDIDSQESEINSEEIVEDDEEDEQIEEPSKIKKRKKNPEQESEEDDIEEDQEEDELVVNEEEIFEDDDDDEDNQDSSEDDDDDED	48
His6GST-Tthp1 L167A; L170A (protein) MSLKKGKFQHNQSKSLWNYTLSPGWREEEVKILKSALQLFGIGKWKKIMESGCLPGKSIGQIYMQTQRLLGQQSLGDFMGLQIDLEAVFNQNMKKQDVLRKNNCIINTGDNPTKEERKRRIEQNRKIYGLSAKQIAEIKLPKVKKHAPQYMTLEDIENEKFTNLEIATHAYNLKAEIVRRLAEQGETIAQPSIIKSLNNLNHNLEQNQNSNSSTETKVTLEQSGKKKYKVLAIEETELQNGPIATNSQKKSINGKRKNNRKINSDSEGNEEDISLEDIDSQESEINSEEIVEDDEEDEQIEEPSKIKKRKKNPEQESEEDDIEEDQEEDELVVNEEEIFEDDDDDEDNQDSSEDDDDDED	0
His6GST-Tthp1 L167A; L170A; L173A; I177A (protein) MSLKKGKFQHNQSKSLWNYTLSPGWREEEVKILKSALQLFGIGKWKKIMESGCLPGKSIGQIYMQTQRLLGQQSLGDFMGLQIDLEAVFNQNMKKQDVLRKNNCIINTGDNPTKEERKRRIEQNRKIYGLSAKQIAEIKLPKVKKHAPQYMTLEDIENEKFTNLEIATHAYNAKAEAVRRLAEQGETIAQPSIIKSLNNLNHNLEQNQNSNSSTETKVTLEQSGKKKYKVLAIEETELQNGPIATNSQKKSINGKRKNNRKINSDSEGNEEDISLEDIDSQESEINSEEIVEDDEEDEQIEEPSKIKKRKKNPEQESEEDDIEEDQEEDELVVNEEEIFEDDDDDEDNQDSSEDDDDDED	0
His6GST-Tthp1 L167A; L170A; L173A (protein) MSLKKGKFQHNQSKSLWNYTLSPGWREEEVKILKSALQLFGIGKWKKIMESGCLPGKSIGQIYMQTQRLLGQQSLGDFMGLQIDLEAVFNQNMKKQDVLRKNNCIINTGDNPTKEERKRRIEQNRKIYGLSAKQIAEIKLPKVKKHAPQYMTLEDIENEKFTNLEIATHAYNAKAEIVRRLAEQGETIAQPSIIKSLNNLNHNLEQNQNSNSSTETKVTLEQSGKKKYKVLAIEETELQNGPIATNSQKKSINGKRKNNRKINSDSEGNEEDISLEDIDSQESEINSEEIVEDDEEDEQIEEPSKIKKRKKNPEQESEEDDIEEDQEEDELVVNEEEIFEDDDDDEDNQDSSEDDDDDED	0
His6GST-Tthp1 L170A (protein) MSLKKGKFQHNQSKSLWNYTLSPGWREEEVKILKSALQLFGIGKWKKIMESGCLPGKSIGQIYMQTQRLLGQQSLGDFMGLQIDLEAVFNQNMKKQDVLRKNNCIINTGDNPTKEERKRRIEQNRKIYGLSAKQIAEIKLPKVKKHAPQYMTLEDIENEKFTNLEILTHAYNLKAEIVRRLAEQGETIAQPSIIKSLNNLNHNLEQNQNSNSSTETKVTLEQSGKKKYKVLAIEETELQNGPIATNSQKKSINGKRKNNRKINSDSEGNEEDISLEDIDSQESEINSEEIVEDDEEDEQIEEPSKIKKRKKNPEQESEEDDIEEDQEEDELVVNEEEIFEDDDDDEDNQDSSEDDDDDED	47
His6GST-Tthp1 I177A (protein) MSLKKGKFQHNQSKSLWNYTLSPGWREEEVKILKSALQLFGIGKWKKIMESGCLPGKSIGQIYMQTQRLLGQQSLGDFMGLQIDLEAVFNQNMKKQDVLRKNNCIINTGDNPTKEERKRRIEQNRKIYGLSAKQIAEIKLPKVKKHAPQYMTLEDIENEKFTNLEILTHLYNLKAEAVRRLAEQGETIAQPSIIKSLNNLNHNLEQNQNSNSSTETKVTLEQSGKKKYKVLAIEETELQNGPIATNSQKKSINGKRKNNRKINSDSEGNEEDISLEDIDSQESEINSEEIVEDDEEDEQIEEPSKIKKRKKNPEQESEEDDIEEDQEEDELVVNEEEIFEDDDDDEDNQDSSEDDDDDED	78

Target: T2, Tetrahymena thermophila MTA1 (TthMTA1), …
Assay: GST pull-down, gray scanning of bound MTA1 band
Conditions: chain shown with the change;; parent: 100

Molecule	percent of parent [%]
His6GST-Tthp2 H39A (protein) MKKNGKSQNQPLDFTQYAKNMRKDLSNQDICLEDGALNASYFLTKKGQYWTPLNQKALQRGIELFGVGNWKEINYDEFSGKANIVELELRTCMILGINDITEYYGKKISEEEQEEIKKSNIAKGKKENKLKDNIYQKLQQMQ	0
His6GST-Tthp2 S26A (protein) MKKNGKSQNQPLDFTQYAKNMRKDLANQDICLEDGALNHSYFLTKKGQYWTPLNQKALQRGIELFGVGNWKEINYDEFSGKANIVELELRTCMILGINDITEYYGKKISEEEQEEIKKSNIAKGKKENKLKDNIYQKLQQMQ	50
His6GST-Tthp2 Y41A (protein) MKKNGKSQNQPLDFTQYAKNMRKDLSNQDICLEDGALNHSAFLTKKGQYWTPLNQKALQRGIELFGVGNWKEINYDEFSGKANIVELELRTCMILGINDITEYYGKKISEEEQEEIKKSNIAKGKKENKLKDNIYQKLQQMQ	0
His6GST-Tthp2 D24A (protein) MKKNGKSQNQPLDFTQYAKNMRKALSNQDICLEDGALNHSYFLTKKGQYWTPLNQKALQRGIELFGVGNWKEINYDEFSGKANIVELELRTCMILGINDITEYYGKKISEEEQEEIKKSNIAKGKKENKLKDNIYQKLQQMQ	77
His6GST-Tthp2 Y17A (protein) MKKNGKSQNQPLDFTQAAKNMRKDLSNQDICLEDGALNHSYFLTKKGQYWTPLNQKALQRGIELFGVGNWKEINYDEFSGKANIVELELRTCMILGINDITEYYGKKISEEEQEEIKKSNIAKGKKENKLKDNIYQKLQQMQ	0
His6GST-Tthp2 R22A (protein) MKKNGKSQNQPLDFTQYAKNMAKDLSNQDICLEDGALNHSYFLTKKGQYWTPLNQKALQRGIELFGVGNWKEINYDEFSGKANIVELELRTCMILGINDITEYYGKKISEEEQEEIKKSNIAKGKKENKLKDNIYQKLQQMQ	0

Source: paper PMC9174199, “Structural basis for MTA1c-mediated DNA N6-adenine methylation” (Nature Communications, 2022)
